Measured values published in PMC5814841.
Changes are numbered by the printed parent chain.

T1: hpTEN (Hansenula polymorpha (Ogataea …, UniProt R4IT35 1-159))
T1 sequence: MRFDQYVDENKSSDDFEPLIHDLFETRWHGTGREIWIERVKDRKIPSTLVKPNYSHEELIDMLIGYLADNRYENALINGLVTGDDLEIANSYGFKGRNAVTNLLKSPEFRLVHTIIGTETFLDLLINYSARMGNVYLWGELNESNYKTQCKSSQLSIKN

T2: hpTEN N53A/S55A/R110A/E119A (Hansenula polymorpha (Ogataea …, UniProt R4IT35 1-159, N53A;S55A;R110A;E119A))
T2 sequence: T1 sequence with N53A, S55A, R110A, E119A

T3: hpTEN N53A/S55A/R110A (Hansenula polymorpha (Ogataea …, UniProt R4IT35 1-159, N53A;S55A;R110A))
T3 sequence: T1 sequence with N53A, S55A, R110A

B1: E1 ssRNA 1 (ssRNA)
RNA: CGCCACCC
B2: FAM-E4 heteroduplex (DNA:RNA)
DNA: GTGGCGGGGTGGCG
?: CGCCACCCCGCCAC
B3: FAM-E8 fork (DNA:RNA)
DNA: CTGTTTCGGGTGGC
RNA: GCCACCCUUCGUCA
B4: FAM-ssDNA E2 (ssDNA)
DNA: GTGGCGGGGTGGCG
B5: E3 RNA-DNA heteroduplex 1 (DNA:RNA)
DNA: GGGTGGCG
?: CGCCACCC
B6: E4 RNA-DNA heteroduplex 2 (DNA:RNA)
DNA: GTGGCGGGGTGGCG
?: CGCCACCCCGCCAC
B7: E5 ssRNA 2 (ssRNA)
RNA: CGCCACCCCGCCAC
B8: E9 RNA-DNA half-fork (DNA:RNA)
DNA: GGGTGGC
RNA: GCCACCCUUCGUCA

Key:
hpTEN [1] = target: T1, hpTEN; experiment: NMR titration
hpTEN [2] = target: T1, hpTEN; experiment: MST
[3] = target: T2, hpTEN N53A/S55A/R110A/E119A; experiment: MST
hpTEN N53A/S55A/R110A = target: T3, hpTEN N53A/S55A/R110A; experiment: MST

| Binder | Kd (hpTEN [1]) | Kd (hpTEN [2]) | further results |
| --- | --- | --- | --- |
| B1 | 5000 ± 2500 µM | – | – |
| B2 | – | 900 ± 200 µM | – |
| B3 | – | 400 ± 200 µM | Kd [3]: ~300 µM; Kd (hpTEN N53A/S55A/R110A): ~300 µM |
| B4 | – | 1000 ± 200 µM | – |
| B5 | 1400 ± 300 µM | – | – |
| B6 | 900 ± 200 µM | – | – |
| B7 | 5000 ± 3000 µM | – | – |
| B8 | 4000 ± 2000 µM | – | – |
